Measured values published in patent publication US20130039923A1 (Novo Nordisk, published 2013).
Like-named read-outs stand apart in the source and are kept apart here. Values belong to the binder of their own block, whether it stands above or below them.

Assays:
Test in all cases: Ala-scan peptide array of hIL20 74-96 on cellulose; fluorescein-labelled antibody; fluorescence as OD
[1] = molecular target: T1, Peptide no. 56 (Figure 8A)
T1 construct: Ala-scan peptide on the array; also called Peptide no; S91A
T1 peptide: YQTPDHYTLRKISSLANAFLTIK
Description: (§1) The screenings were done using fluorescence labelled antibodies. The labelling was done by gel-filtering the antibody stock against 1% NaHCO3, using NAP5 column (GE Healthcare according the manual from manufacturer. This was followed by adding 25 mole equivalents of 5(6)-carboxyfluorescein N-hydroxysuccinimide ester (Sigma, C1609) dissolved in DMSO. The coupling was allowed to continue for 2 hours followed by a gelfiltration against TRIS washing buffer (50 mM TRIS, pH=7.4, 0.15M NaCl, 0.1 M ArgHCl, 0.05% Tween 20) in order to removed uncoupled fluorescein.
(§2) Screening of arrays were done by adding 10 μl of antibody to 30 ml incubation buffer (0.5% BSA, 50 mM TRIS, pH=7.4, 0.15M NaCl, 0.1 M ArgHCl, 0.05% Tween 20). The sheets were incubated for 1-2 hours, followed by washing five times with washing buffer. […] The fluorescence intensity were measured and transformed into digits that were exported to Prism 5 (Graph Pad Software, USA) for further analysis.

[2] = molecular target: T2, Peptide no. 49 (Figure 8A)
T2 construct: Ala-scan peptide on the array; also called Peptide no; R83A
T2 peptide: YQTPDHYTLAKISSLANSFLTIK
Description: as §1, §2

[3] = molecular target: T3, Peptide no. 53 (Figure 8A)
T3 construct: Ala-scan peptide on the array; also called Peptide no; S87A
T3 peptide: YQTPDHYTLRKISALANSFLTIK
Description: as §1, §2

[4] = molecular target: T4, Peptide no. 46 (Figure 8A)
T4 construct: Ala-scan peptide on the array; also called Peptide no; Y80A
T4 peptide: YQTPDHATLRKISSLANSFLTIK
Description: as §1, §2

[5] = molecular target: T5, Peptide no. 45 (Figure 8A)
T5 construct: Ala-scan peptide on the array; also called Peptide no; H79A
T5 peptide: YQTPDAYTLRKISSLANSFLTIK
Description: as §1, §2

[6] = molecular target: T6, Peptide no. 43 (Figure 8A)
T6 construct: Ala-scan peptide on the array; also called Peptide no; P77A
T6 peptide: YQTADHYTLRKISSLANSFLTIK
Description: as §1, §2

[7] = molecular target: T7, Peptide no. 50 (Figure 8A)
T7 construct: Ala-scan peptide on the array; also called Peptide no; K84A
T7 peptide: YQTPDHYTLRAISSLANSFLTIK
Description: as §1, §2

[8] = molecular target: T8, Peptide no. 54 (Figure 8A)
T8 construct: Ala-scan peptide on the array; also called Peptide no; L88A
T8 peptide: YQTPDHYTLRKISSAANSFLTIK
Description: as §1, §2

[9] = molecular target: T9, Peptide no. 42 (Figure 8A)
T9 construct: Ala-scan peptide on the array; also called Peptide no; T76A
T9 peptide: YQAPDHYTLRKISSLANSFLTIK
Description: as §1, §2

[10] = molecular target: T1, Peptide no. 56 (Figure 8A)
Description: as §1, §2

[11] = molecular target: T10, Peptide no. 44 (Figure 8A)
T10 construct: Ala-scan peptide on the array; also called Peptide no; D78A
T10 peptide: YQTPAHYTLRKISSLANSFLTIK
Description: as §1, §2

[12] = molecular target: T11, Peptide no. 59 (Figure 8A)
T11 construct: Ala-scan peptide on the array; also called Peptide no; T94A
T11 peptide: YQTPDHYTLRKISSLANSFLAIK
Description: as §1, §2

[13] = molecular target: T12, Peptide no. 52 (Figure 8A)
T12 construct: Ala-scan peptide on the array; also called Peptide no; S86A
T12 peptide: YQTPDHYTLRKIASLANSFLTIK
Description: as §1, §2

[14] = molecular target: T13, Peptide no. 58 (Figure 8A)
T13 construct: Ala-scan peptide on the array; also called Peptide no; L93A
T13 peptide: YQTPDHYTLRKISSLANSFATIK
Description: as §1, §2

[15] = molecular target: T14, Peptide no. 51 (Figure 8A)
T14 construct: Ala-scan peptide on the array; also called Peptide no; I85A
T14 peptide: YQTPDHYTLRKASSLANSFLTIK
Description: as §1, §2

[16] = molecular target: T15, Peptide no. 61 (Figure 8A)
T15 construct: Ala-scan peptide on the array; also called Peptide no; K96A
T15 peptide: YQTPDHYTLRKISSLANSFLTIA
Description: as §1, §2

[17] = molecular target: T16, Peptide no. 55 (Figure 8A)
T16 construct: Ala-scan peptide on the array; also called Peptide no; N90A
T16 peptide: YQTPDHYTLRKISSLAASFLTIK
Description: as §1, §2

[18] = molecular target: T17, Peptide no. 60 (Figure 8A)
T17 construct: Ala-scan peptide on the array; also called Peptide no; I95A
T17 peptide: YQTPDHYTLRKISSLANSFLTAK
Description: as §1, §2

[19] = molecular target: T18, Peptide no. 57 (Figure 8A)
T18 construct: Ala-scan peptide on the array; also called Peptide no; F92A
T18 peptide: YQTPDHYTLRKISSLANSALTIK
Description: as §1, §2

[20] = molecular target: T19, Peptide no. 47 (Figure 8A)
T19 construct: Ala-scan peptide on the array; also called Peptide no; T81A
T19 peptide: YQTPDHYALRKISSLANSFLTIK
Description: as §1, §2

[21] = molecular target: T20, Peptide no. 48 (Figure 8A)
T20 construct: Ala-scan peptide on the array; also called Peptide no; L82A
T20 peptide: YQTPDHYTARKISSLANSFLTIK
Description: as §1, §2

- binding result [1]: binds
B1: human anti-hIL20 monoclonal antibody 15D2 (antibody, V domains shown)
VH: QVQLVQSGAEVKRPGASVKVSCKASGYTFTNDIIHWVRQAPGQRLEWMGWINAGYGNTQYSQNFQDRVSITRDTSASTAYMELISLRSEDTAVYYCAREPLWFGESSPHDYYGMDVWGQGTTVTVSS
VL: AIQLTQSPSSLSASVGDRVTITCRASQGISSALAWYQQKPGKAPKLLIYDASSLESGVPSRFSGSGSGTDFTLTISSLQPEDFATYYCQQFNSYPLTFGGGTKVEIKR
notes: also called 15D2-wt; 15D2 wild-type

- binding result [2]: binds
- binding result [3]: binds
- binding result [4]: binds
- binding result [5]: binds
- binding result [6]: binds
- binding result [7]: binds
- binding result [8]: binds
- binding result [9]: binds
- binding result [10]: binds
- binding result [11]: binds
- binding result [12]: binds
- binding result [13]: binds
- binding result [14]: binds
- binding result [15]: binds
- binding result [16]: binds
- binding result [17]: binds
- binding result [18]: binds
- binding result [19]: binds
- binding result [20]: binds
- binding result [21]: binds
B2: human anti-hIL20 monoclonal antibody 5B7 (antibody, human IgG4, V domains shown)
VH: QVQLVQSGAEVKRPGASVKVSCKASGYTFSSHIMHWVRQAPGQRLEWMGWINAGYGNTKYSQNFQDRVTITRDTSASTAYMELISLRSEDTAVYYCAREPLWFGELSPHDYYGMDVWGQGTTVTVSS
VL: AIQLTQSPSSLSASVGDRVTITCRASQGISSALAWYQQKPGKAPKLLIYDASSLESGVPSRFSGSGSGTDFTLTISSLQPEDFATYYCQQFNSYPLTFGGGTKVEIKR
notes: described as human IgG4; also called 5B7-wt
